Drawing on US20190062453A1 (Hoffmann-La Roche, published 2019), this text covers binding result, Kd and EC50 for ten molecules.

T1: Recombinant human DcR2-Fc (human, UniProt Q9UBN6 56-211)
T1 construct: bought for the phage antibodies; also called huDcR2Fc; human DcR2 (TNFRSF10D); not shown: Fc part of the chimera
T1 sequence (looked up): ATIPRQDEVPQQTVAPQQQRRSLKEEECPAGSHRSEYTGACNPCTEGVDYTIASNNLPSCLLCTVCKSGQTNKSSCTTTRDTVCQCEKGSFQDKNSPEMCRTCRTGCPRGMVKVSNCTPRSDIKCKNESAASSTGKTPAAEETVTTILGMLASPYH

T2: Recombinant human OPG-Fc (human, UniProt O00300 22-194)
T2 construct: bought; also called rhuOPGFc; human Osteoprotegerin; Fc part of the bought chimera not given
T2 sequence (looked up): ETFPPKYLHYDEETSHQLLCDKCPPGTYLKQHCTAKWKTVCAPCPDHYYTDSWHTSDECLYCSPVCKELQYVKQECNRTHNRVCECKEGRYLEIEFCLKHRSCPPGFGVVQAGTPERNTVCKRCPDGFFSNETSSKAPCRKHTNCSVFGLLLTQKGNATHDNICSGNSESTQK

T3: Recombinant human DcR1-Fc (human, UniProt O14798 26-221)
T3 construct: bought; also called huDcR1Fc; human DcR1 (TNFRSF10C); Fc part of the bought chimera not given
T3 sequence (looked up): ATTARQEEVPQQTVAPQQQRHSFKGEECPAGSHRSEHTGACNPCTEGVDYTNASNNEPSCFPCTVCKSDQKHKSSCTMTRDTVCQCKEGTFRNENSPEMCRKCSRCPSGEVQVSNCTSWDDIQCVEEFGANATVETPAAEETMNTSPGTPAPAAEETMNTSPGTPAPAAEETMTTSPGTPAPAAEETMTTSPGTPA

B1: DR5TAA-0032 (bispecific antibody, human IgG1, kappa)
HC (DR5-crossed FAP): not shown
LC (DR5): AQVLTQTPSPVSAAVGGTVTINCQASQSVYNNRLAWYQQKPGQPPKLLIYLASTLASGVPSRFKGSGSGTQFTLTISDLQCDDAATYYCAGGYSGNINAFGGGTEVVVKRTVAAPSVFIFPPSDEQLKSGTASVVCLLNNFYPREAKVQWKVDNALQSGNSQESVTEQDSKDSTYSLSSTLTLSKADYEKHKVYACEVTHQGLSSPVTKSFNRGEC
Crossed LC (FAP): EIVLTQSPGTLSLSPGERATLSCRASQSVSRSYLAWYQQKPGQAPRLLIIGASTRATGIPDRFSGSGSGTDFTLTISRLEPEDFAVYYCQQGQVIPPTFGQGTKVEIKSSASTKGPSVFPLAPSSKSTSGGTAALGCLVKDYFPEPVTVSWNSGALTSGVHTFPAVLQSSGLYSLSSVVTVPSSSLGTQTYICNVNHKPSNTKVDKKVEPKSCD
notes: also called 039-28H1
B2: DR5TAA-0036 (bispecific antibody, human IgG1, kappa)
HC (DR5-crossed FAP): not shown
LC (DR5): ALVMTQTPSSVSAAVGGTVTINCQASQNIYSNLAWFQQKPGQPPKLLIYETSKLASGVPSRFSGSGSGTEFTLTISDLECDDAATYYCQSSWHSISTDCAFGGGTEVVVKRTVAAPSVFIFPPSDEQLKSGTASVVCLLNNFYPREAKVQWKVDNALQSGNSQESVTEQDSKDSTYSLSSTLTLSKADYEKHKVYACEVTHQGLSSPVTKSFNRGEC
Crossed LC (FAP): B1 Crossed LC (FAP)
B3: DR5TAA-0034 (bispecific antibody, human IgG1, kappa)
HC (DR5-crossed FAP): not shown
LC (DR5): ALVMTQTPSSTSEPVGGTVTIKCQASQSIGSSLSWYQQTPGQPPKLLIYTASSLASSVPKRFSGSRSGTQFTLTISGVQCADAATYYCLGIDDVRRDDGFAFGGGTEVVVKRTVAAPSVFIFPPSDEQLKSGTASVVCLLNNFYPREAKVQWKVDNALQSGNSQESVTEQDSKDSTYSLSSTLTLSKADYEKHKVYACEVTHQGLSSPVTKSFNRGEC
Crossed LC (FAP): B1 Crossed LC (FAP)
notes: also called 298-28H1
B4: DR5TAA-0011 (antibody, V domains shown)
VH: QSVEESGGRLVTPGTPLTLTCTVSGFSISRYAMIWVRQAPGEGLEYIGFITSDSSAYYASWAKGRFTISKTSTTVDLKMTSPTTEDTATYFCARYTYSDGTDLWGPGTLVTVSS
VL: DIVMTQTPASVSEPVGGTVTIKCQASQSISTYLSWYQQKPGQPPKRLIYKASTLASGVPSRFKGSGSGTDFTLTIRDLECADAATYYCQPNSGIATYGAAFGGGTEVVVKG
notes: also called 174; clone 174
B5: DR5TAA-0005 (antibody, V domains shown)
VH: QSLEESGGRLVTPGTPLTLTCTASGFSLSSAYMSWVRQAPGKGLEWIGYIYSGSGSTWYASWVKGRFTISKTSTTVDLKITSPTTEDTATYFCARGYSTMGDLWGPGTLVTVSS
VL: QVLTQTPSPVSAAVGGTVTINCQASQSVYNNRLAWYQQKPGQPPKLLIYLASTLASGVPSRFKGSGSGTQFTLTISDLQCDDAATYYCAGGYSGNINAFGGGTEVVVKG
notes: rabbit IgG; also called 039; clone 039
B6: DR5TAA-0016 (antibody, V domains shown)
VH: QSLEESGGRLVKPDETLTLTCTVSGFSLNNYAMSWVRQAPGKGLEWIGMINKYGTKYYATWTKGRATISKTSTTLDLEITSPTTEDTATYFCARVRYAGDDYAEWLDVWGQGILVTVSS
VL: DIVMTQTASPVSAAVGGTVTINCQASQSISSSYVSWYQQKPGQPPKLLIYKASTLASGVPSRFSGSGSGTQLSLTIRGVQCDDAATYYCLYGYSDVSSSEYVFGGGTEVVVRG
B7: DR5TAA-0006 (antibody, V domains shown)
VH: QSLEESGGRLVTPGTPLTLTCTASGFSLSSNHMSWVRQAPGKGLEWIGYIYAGSGSAYYASWAKGRFTISRTSTTVDLKMTSLTTEDTATYFCAGDAGSSYWEFNLWGPGTLVTVSS
VL: LVMTQTPSSTSEPVGGTVTIKCQASQSIGSSLSWYQQKPGQPPKLLIYHASTLASGVPSRFSGSRSGIQTTLTISGVQCDDAATYYCLGVADARRDDGFAFGGGTEVVVKG
notes: rabbit IgG; also called 058; clone 058
B8: DR5TAA-0013 (antibody, V domains shown)
VH: B7 VH with S27T, L28I, N31Y, G55A, A57T, Y58W, A63V, R71K, G95R
VL: LVMTQTPSSTSEPVGGTVTIKCQASQSIGSSLSWYQQTPGQPPKLLIYTASSLASSVPKRFSGSRSGTQFTLTISGVQCADAATYYCLGIDDVRRDDGFAFGGGTEVVVKG
notes: rabbit IgG; also called 298; clone 298
B9: DR5TAA-0019 (antibody, V domains shown)
VH: QSVEESGGRLVTPGTPLTLTCTVSGFSLSNYAMSWVRQAPGKGLEWIGIISSSGTTYYASWAKGRFTISKTSTTVDLKVTSPTTEDTATYFCARETYYGYSYAAGLWGPGTLVTVSS
VL: ALVMTQTPSSVSAAVGGTVTINCQASQNIYSNLAWFQQKPGQPPKLLIYETSKLASGVPSRFSGSGSGTEFTLTISDLECDDAATYYCQSSWHSISTDCAFGGGTEVVVKG
notes: rabbit IgG
B10: DR5TAA-0010 (antibody, V domains shown)
VH: QSLEESGGRLVKPDETLTLTCTVSGFSLSSNAISWVRQAPGMGLEWIGIIGSSGYTYYASWAKGRFTVSKTSTTVDLEIASPTTEDTATYFCARGYSGASDYSFNLWGPGTLVTVSS
VL: AYDMTQTPDSVEVAVGGTVTIKCQASQTIGDALAWYQQKPGQRPNLLIYRTSTLASGVPSRFSGSGSGTHFTLTISGVECADAATYYCQQGATYNNVLNTFGGGTEVVVKG
notes: rabbit IgG; also called 481; clone 481

Numbering of substitutions follows the chain as printed.

The target in the first assay is T4, Murine FAP ectodomain + poly-lys-tag + his6-tag (murine, UniProt P97321 27-761).
T4 construct: also called recombinant soluble murine FAP
T4 sequence (P97321 other isoform, or with tags, fused parts or gaps): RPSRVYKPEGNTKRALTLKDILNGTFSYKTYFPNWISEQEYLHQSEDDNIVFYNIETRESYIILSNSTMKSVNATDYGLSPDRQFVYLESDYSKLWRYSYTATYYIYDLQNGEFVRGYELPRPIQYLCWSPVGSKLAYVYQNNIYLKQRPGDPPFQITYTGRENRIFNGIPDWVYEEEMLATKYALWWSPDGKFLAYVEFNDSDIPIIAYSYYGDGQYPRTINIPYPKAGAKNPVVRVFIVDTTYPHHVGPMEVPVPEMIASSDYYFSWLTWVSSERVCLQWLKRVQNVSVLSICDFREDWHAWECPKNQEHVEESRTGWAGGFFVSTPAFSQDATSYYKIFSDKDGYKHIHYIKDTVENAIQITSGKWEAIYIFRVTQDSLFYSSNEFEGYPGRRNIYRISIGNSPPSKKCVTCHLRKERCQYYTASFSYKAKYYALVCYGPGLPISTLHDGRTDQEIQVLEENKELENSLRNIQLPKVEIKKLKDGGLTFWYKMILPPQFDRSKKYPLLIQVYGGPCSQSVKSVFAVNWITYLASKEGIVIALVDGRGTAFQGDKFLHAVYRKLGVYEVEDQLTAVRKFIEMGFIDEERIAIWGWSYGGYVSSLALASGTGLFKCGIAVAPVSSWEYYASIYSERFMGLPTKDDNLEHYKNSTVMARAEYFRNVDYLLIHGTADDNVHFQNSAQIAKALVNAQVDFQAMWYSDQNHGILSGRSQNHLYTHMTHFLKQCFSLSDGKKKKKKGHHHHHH
Put plainly: SPR (Biacore), bispecific antibody bound to immobilised human DR5-Fc, recombinant murine FAP as second analyte (simultaneous binding).
Procedure: (§1) The dissociation was monitored for 60 s. The flow rate for all steps was 30 μl/min.
Take B1: the binding result is recorded as “binds”.

On to B2, for which the binding result is reported as “binds”.

B3: the binding result was “binds”.

The next assay deals with T5, human DR5 ECD-Avi-his (human, UniProt O14763 56-207).
T5 construct: also called recombinant human DR5 (monomeric His-Avi fusion protein); monomeric human DR5
Put plainly: SPR, rabbit IgG captured by anti rabbit, monomeric DR5 injected.
Procedure: The sample and system buffer was PBS-T (10 mM phosphate buffered saline including 0.05% Tween20) pH 7.4. The flow cell was set to 25° C.—and the sample block set to 12° C.—and primed with running buffer twice.
The dissociation phase was monitored for up to 300 sec and triggered by switching from the sample solution to running buffer. The surface was regenerated by 60 sec washing with a 100 mM H3PO4 (phosphoric acid) solution at a flow rate of 30 μl/min. Bulk refractive index differences were corrected by subtracting the response obtained from a blank surface. Buffer injections are also subtracted (=double referencing). For calculation of KD and other kinetic parameters the Langmuir 1:1 model was used.
B4 yielded an equilibrium dissociation constant (Kd) of 4.24 nM.

Regarding B5, the Kd was found to be 13.3 nM.

For B6, the affinity, expressed as Kd, was 1.45 nM.

With B7, the Kd stood at 5.92 nM.

Molecule B8 yielded a Kd of 9.12 nM.

Molecule B9 returned a Kd of 0.675 nM.

B10 came in with an equilibrium dissociation constant (Kd) of 15.9 nM.

A further assay deals with T6, Cynom. DR5 (ECD)-AcTev-Fc-Avi (cynomolgus).
T6 construct: also called cynomolgus DR5; cy DR5
Put plainly: biochemical ELISA, biotinylated antigen on streptavidin plate.
Procedure: Antigen binding immunoassays were performed at room temperature on 384 well streptavidin coated microtiter plates (MicroCoat Biotechnologie GmbH) with PBS buffer supplemented with 0.05% Tween®-20 and 0.5% BSA (Roche Diagnostics GmbH). […] After 90 min incubation the plate was washed 6 times with PBST (phosphate buffered saline with 0.2% Tween®-20) and developed with BM Blue® HRP substrate solution (BM Blue®: 3,3′-5,5′-Tetramethylbenzidine, Roche Diagnostics GmbH) for 30 minutes at RT. Absorbance was measured at 370 nm. The blank value was defined without addition of supernatant.
The molecule B4 gave an EC50 of 4.3 ng/mL.

B5 showed an EC50 of 3.7 ng/mL.

Molecule B6 had a concentration giving a half-maximal response (EC50) of 2.7 ng/mL.

For the molecule B7, a half-maximal effect (EC50) was put at 1.6 ng/mL.

In turn, B8 returned a concentration giving a half-maximal response (EC50) of 2.1 ng/mL.

Molecule B9 gave an EC50 of 2.2 ng/mL.

Turning to B10, the EC50 came out at 8.7 ng/mL.

Another assay has as its target T7, human DR5 (monomeric Fc fusion) (human, UniProt O14763 56-207, biotinylated at the Avi tag in the ELISA (the tag is not in the letters)).
T7 construct: biotinylated in the ELISA; also called ECD-AcTev-hu Fc knob-Avi; not shown: AcTev site, hu Fc knob and Avi part of the fusion chain, and the separate Fc-hole chain
The assay is described as above.
For B4, a half-maximal effect (EC50) was put at 2 ng/mL.

Take B5: a half-maximal response (EC50) required 2.5 ng/mL.

In the case of B6, a half-maximal response (EC50) required 4 ng/mL.

For B7, a half-maximal response (EC50) required 2 ng/mL.

Turning to B8, the EC50 worked out at 2.1 ng/mL.

B9 showed an EC50 of 3.5 ng/mL.

B10 came in with an EC50 of 2.8 ng/mL.

The target in a further assay is T8, Human FAP ectodomain + poly-lys-tag + his6-tag (human, UniProt Q12884 27-760).
T8 construct: also called recombinant soluble human FAP; hFAP
The experiment in a line: SPR (Biacore), bispecific antibody bound to immobilised human DR5-Fc, recombinant human FAP as second analyte (simultaneous binding).
Procedure: as §1
As for B1, the binding result is reported as “binds”.

For B2, the binding result is “binds”.

Take B3: the binding result is “binds”.

A further assay concerns the target T1, Recombinant human DcR2-Fc. The experiment in a line: binding ELISA.
On to B4, for which the binding result is reported as “no binding”.

Consider B5, for which the binding result is given as “no binding”.

Take B6: the binding result is “no binding”.

As to B7, the binding result was “no binding”.

For the molecule B8, the binding result was “no binding”.

On to B9, for which the binding result is “no binding”.

Regarding B10, the binding result is “no binding”.

Another assay has as its target T9, murine DR5 ECD-AcTev-hu Fc-Avi (murine, UniProt Q9QZM4 53-153).
T9 construct: range 53-153; also called mouse DR5
The experiment in a line: binding ELISA.
Take B4: the binding result was “no binding”.

Regarding B5, the binding result is given as “no binding”.

In the case of B6, the binding result is recorded as “no binding”.

Regarding B7, the binding result is “no binding”.

For the molecule B8, the binding result is given as “no binding”.

Take B9: the binding result was “no binding”.

For B10, the binding result is listed as “no binding”.

A further assay addresses T2, Recombinant human OPG-Fc. The experiment in a line: binding ELISA.
On to B4, for which the binding result is “no binding”.

For the molecule B5, the binding result is “no binding”.

For B6, the binding result is reported as “no binding”.

For B7, the binding result is recorded as “no binding”.

Turning to B8, the binding result is reported as “no binding”.

Take B9: the binding result was “no binding”.

In the case of B10, the binding result is “no binding”.

In another assay the target is T3, Recombinant human DcR1-Fc. The experiment in a line: binding ELISA.
As for B4, the binding result is “no binding”.

Consider B5, for which the binding result is on record as “no binding”.

Consider B6, for which the binding result was “no binding”.

As to B7, the binding result was “no binding”.

On to B8, for which the binding result is “no binding”.

For B9, the binding result is recorded as “no binding”.

B10: the binding result is recorded as “no binding”.

A further assay has as its target T10, Recombinant human DR4-Fc (human, UniProt O00220 109-239).
T10 construct: bought; also called huDR4Fc; human DR4 (TNFRSF10A); Fc part of the bought chimera not given
Put plainly: binding ELISA.
As to B4, the binding result is on record as “no binding”.

Consider B5, for which the binding result was “no binding”.

Regarding B6, the binding result is “no binding”.

Consider B7, for which the binding result is given as “no binding”.

Turning to B8, the binding result is “no binding”.

Consider B9, for which the binding result is “no binding”.

As to B10, the binding result is “no binding”.
